For the test, the target named is HLA-A*02:01 (human). Description: UV-ligand exchange ELISA.

B1: … (peptide)
peptide: SLTETIEGV
modifications: not checked
B1 registered a peptide exchange yield of 20 to 50%.

For the origin of these results see patent US20170037092A1.
